Assay results reported in the supplement of paper PMC10567573.

B1: ELF3 (parent)
chain: LSKEYWDCLEGKKSKHAPRGTHLW

Variants of: B1
Assay: protein stability index of a GFP-peptide fusion (GPS, HEK-293T) (PSI 1-6); higher = more stable
Conditions: c terminus: a fixed tail appended
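Note: lentivirally expressed fusions sorted by FACS into six bins by GFP to DsRed ratio, PSI derived from sequencing read proportions per bin multiplied by bin number.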

Protein stability index of substitutions, site by site:
E10: Y 1.63 | A 2.52 | V 2.28 | F 2.08 | S 2.49 | H 2.15 | K 2.18 | M 2.18 | P 2.16 | R 1.86 | C 2.07 | N 2.55 | I 1.61 | D 3.23 | W 2.08 | T 2.1 | Q 2.73 | L 1.82 | G 2.37
K13: A 2.76 | H 2.87 | F 2.74 | N 2.36 | T 2.37 | P 2.47 | G 3.08 | I 2.22 | V 2.32 | M 2.3 | Q 3.17 | R 2.87 | D 3.24 | L 2.64 | W 2.92 | Y 2.82 | C 2.24 | E 3.52
K12: F 2.71 | H 2.52 | D 3.4 | G 2.58 | V 2.23 | S 3.38 | Y 1.88 | E 3.21 | L 2.06 | Q 2.99 | M 2.53 | R 2.35 | A 2.54 | P 2.96 | I 2.26 | C 1.97 | T 2.43 | W 1.54 | N 3.68
R19: T 2.85 | K 3.06 | P 2.64 | F 2.25 | L 2.27 | E 3.63 | M 2.83 | W 2.58 | Q 3.79 | S 3.29 | C 2.6 | V 2.78 | H 2.66 | D 3.21 | N 2.83 | G 2.68 | Y 2.18 | A 3.06 | I 2.38
P18: N 3.36 | L 2.43 | Q 2.96 | R 2.34 | Y 2.73 | W 2.24 | M 2.31 | S 3.13 | I 2.6 | K 3.39 | D 3 | F 2.97 | T 3.16 | V 2.79 | G 2.46 | C 2.53 | E 3.01 | A 2.68 | H 3.24
H22: N 3.23 | T 2.84 | Q 3.05 | K 2.99 | G 2.68 | R 2.85 | M 2.37 | V 2.43 | D 3.31 | W 1.95 | L 2.12 | I 2.42 | A 2.56 | C 2.45 | S 3.1 | E 3.29 | F 1.92 | P 3.03 | Y 2.51
T21: L 2.02 | H 2.66 | D 3.45 | F 2.05 | S 2.24 | P 2.57 | Q 2.78 | E 3.37 | N 3.1 | W 2.04 | A 3.4 | M 2.32 | V 1.8 | G 2.54 | C 2.22 | I 2.19 | Y 2.37 | K 3.08 | R 2.78
L23: G 3.42 | T 3.29 | P 3.13 | F 2.93 | K 3.29 | S 3.41 | C 3.11 | A 3.24 | R 3.25 | M 3.27 | E 4.03 | Q 3.59 | V 2.93 | D 4.24 | W 2.71 | Y 2.85 | I 2.66 | H 3.42 | N 3.29
K15: W 2.93 | H 2.52 | E 2.77 | Y 1.83 | F 2.74 | R 3.44 | T 3.26 | C 2.29 | S 3.04 | A 2.86 | M 3.18 | I 2.61 | D 3 | L 2.16 | G 2.56 | P 2.53 | Q 2.87 | V 2.64 | N 2.79
W24: T 4.05 | V 2.96 | L 3.3 | Q 3.8 | P 4.15 | Y 2.9 | A 3.96 | C 3.8 | M 3.83 | G 4.07 | K 4.11 | I 2.94 | D 4.02 | F 3.6 | E 4.33 | S 4.08 | N 3.64 | H 3.98 | R 3.54
A17: P 3.21 | H 2.5 | Q 3.4 | S 3.12 | M 3.06 | T 2.86 | C 3.33 | W 2.4 | F 2.78 | G 3.65 | D 2.69 | V 3.02 | Y 2.65 | E 3.58 | L 2.45 | R 2.38 | I 3.06 | K 2.86 | N 2.99
C8: K 3.73 | Q 2.95 | S 3.33 | W 2.17 | I 2.66 | Y 2.74 | G 3.2 | E 2.85 | T 3.26 | V 3.89 | L 3.08 | R 3.2 | A 3.1 | D 3.97 | P 2.04 | H 3.06 | M 3.48 | F 2.81 | N 3.07
L9: P 3.44 | A 3.38 | C 3.3 | Q 3.71 | H 3.26 | F 2.6 | T 2.93 | G 3.65 | W 2.27 | V 3.83 | N 3.81 | R 2.89 | M 3.42 | D 3.22 | Y 2.84 | K 2.92 | E 3.46 | S 3.31 | I 3.04
D7: S 2.44 | W 1.89 | K 2.41 | M 2.6 | Q 3 | Y 2.29 | R 1.65 | V 2.44 | P 2.04 | N 2.96 | L 2.26 | T 2.76
H16: G 2.88 | W 2.24 | Q 2.86 | I 2.87 | E 3.14 | A 2.72 | V 2.94 | P 2.65 | K 3.05 | S 2.52 | N 3.2 | D 3.25 | L 2.68 | C 2.64 | T 3.43 | M 2.3 | R 2.4 | Y 3.54 | F 2.64
S14: F 1.99 | I 2.68 | Y 3.48 | D 4.18 | W 3.31 | H 2.5 | T 3.13 | L 2.19 | E 3.16 | K 3.08 | A 2.81 | M 2.24 | V 2.94 | R 2.92 | C 2.1 | N 2.96 | G 2.77 | P 2.94 | Q 2.71
G11: F 2.43 | S 3.5 | Y 2.58 | Q 2.69 | R 3.26 | W 1.82 | A 2.91 | T 2.98 | V 2.2 | E 3.29 | M 1.94 | P 2.89 | H 2.17 | K 2.97 | L 2.71 | N 3.48 | C 2.27 | I 2.29 | D 3.19
G20: R 2.64 | F 1.75 | I 1.54 | W 1.94 | N 2.74 | S 3.15 | E 2.59 | Y 2.78 | K 2.59 | D 2.96 | P 2.72 | A 2.45 | H 2.53 | Q 3.06 | M 2.44 | L 2.55 | C 2.73 | T 2.64 | V 2.11
